Earlier results, collected in US20160114039A1, “TREATMENT OF POLYPOIDAL CHOROIDAL VASCULOPATHY” (BAYER HEALTHCARE LLC, priority 2013, published 2016).

System: symptomatic PCV
Conditions: sixty-one Asian patients with symptomatic PCV; primary end point assessed at month 6

B1: ranibizumab (antibody, chains of the INN, looked up, V domains shown)
VH: EVQLVESGGGLVQPGGSLRLSCAASGYDFTHYGMNWVRQAPGKGLEWVGWINTYTGEPTYAADFKRRFTFSLDTSKSTAYLQMNSLRAEDTAVYYCAKYPYYYGTSHWYFDVWGQGTLVTVSS
VL: DIQLTQSPSSLSASVGDRVTITCSASQDISNYLNWYQQKPGKAPKVLIYFTSSLHSGVPSRFSGSGSGTDFTLTISSLQPEDFATYYCQQYSTVPWTFGQGTKVEIK
modifications: Fab
notes: anti-VEGF agent ranibizumab (Lucentis)
complete polyp regression: 28.6%
